Assays:
Assay in all cases: cell-based or functional assay
[1] = target: HIV Env, isolate ZM214M.PL15 (HIV)
[2] = target: HIV Env, isolate 1006_11_C3_1601 (HIV)
[3] = target: HIV Env, isolate BF1266.431a (HIV)
HIV Env, isolate CNE30 = HIV Env, isolate CNE30 (HIV)
[4] = target: HIV Env, isolate AC10.0.29 (HIV)
[5] = target: HIV Env, isolate X2088_C9 (HIV)
[6] = target: HIV Env, isolate 3817.v2.c59 (HIV)
[7] = target: HIV Env, isolate Ce2010_F5 (HIV)
[8] = target: HIV Env, isolate 231965.c01 (HIV)
HIV Env, isolate CNE21 = HIV Env, isolate CNE21 (HIV)
[9] = target: HIV Env, isolate 6244_13_B5_4576 (HIV)
[10] = target: HIV Env, isolate SC422661.8 (HIV)
[11] = target: HIV Env, isolate REJO4541.67 (HIV)
[12] = target: HIV Env, isolate X1632_S2_B10 (HIV)
HIV Env, isolate 249MB10 = HIV Env, isolate 249MB10 (HIV)
[13] = target: HIV Env, isolate CAAN5342.A2 (HIV)
[14] = target: HIV Env, isolate ZM109F.PB4 (HIV)
HIV Env, isolate 246FC1G = HIV Env, isolate 246FC1G (HIV)

B1: ePGDM9 (antibody, V domains shown)
VH: QAQLVQSGPEVRKPGTSVKVSCKNPGNTLTTYDLHWVRQVPGQGLQWMGWISHEGDKKVIVERFKAKVTIDWDRSTNTAYLQLSGLTSEDTAVYYCAKGSKHRLRDYALYDEDGALNWAVDVDYLANLEFWGQGTAVTVSS
VL: DIVLTQSPLSLSVTPGESASISCKSSQSLIHGDRNNYLAWYVQKPGRSPQLLIDLASERASGVPDRFSGSGSRKDFTLKISRVETEDVGTYYCMQGRESPWTFGQGTKVDIK
- IC80 (µg/ml) with constrains [1]: > 100 µg/mL
- IC80 (µg/ml) with constrains [2]: 2.35 µg/mL
- IC80 (µg/ml) with constrains [3]: 0.008 µg/mL
- IC80 (µg/ml) with constrains (HIV Env, isolate CNE30): > 100 µg/mL
- IC80 (µg/ml) with constrains [4]: 0.298 µg/mL
- IC80 (µg/ml) with constrains [5]: > 100 µg/mL
- IC80 (µg/ml) with constrains [6]: 0.64 µg/mL
- IC80 (µg/ml) with constrains [7]: > 100 µg/mL
- IC80 (µg/ml) with constrains [8]: 0.037 µg/mL
- IC80 (µg/ml) with constrains (HIV Env, isolate CNE21): 0.007 µg/mL
- IC80 (µg/ml) with constrains [9]: 50.2 µg/mL
- IC80 (µg/ml) with constrains [10]: 5.33 µg/mL
- IC80 (µg/ml) with constrains [11]: 0.003 µg/mL
- IC80 (µg/ml) with constrains [12]: 0.01 µg/mL
- IC80 (µg/ml) with constrains (HIV Env, isolate 249MB10): 0.028 µg/mL
- IC80 (µg/ml) with constrains [13]: 70.1 µg/mL
- IC80 (µg/ml) with constrains [14]: 0.106 µg/mL
- IC80 (µg/ml) with constrains (HIV Env, isolate 246FC1G): > 100 µg/mL

B2: ePGDM5 (antibody, V domains shown)
VH: QAQLVQSGPEVRKPGTSVKVSCKNPGNTLTTYDLHWVRQVPGQGLQWMGWISHEGDKKVIVERFKAKVTIDWDRSTNTAYLQLSGLTSEDTAVYYCAKGSKHRLRDYALYDEDGALNWAVDVDYLANLEFWGQGTAVTVSS
VL: DFVLTQSPLSLSVTPGESASISCKSDHSLQHGDRNNYLAWYVQKPGRSPQLLIDLASERASGVPDRFSGSGSRKDFTLKIDRVEAEDVGTYYCMQGRESPWTFGQGTKVDIK
- IC80 (µg/ml) with constrains [1]: > 100 µg/mL
- IC80 (µg/ml) with constrains [2]: 1.89 µg/mL
- IC80 (µg/ml) with constrains [3]: 0.014 µg/mL
- IC80 (µg/ml) with constrains (HIV Env, isolate CNE30): > 100 µg/mL
- IC80 (µg/ml) with constrains [4]: 1.1 µg/mL
- IC80 (µg/ml) with constrains [5]: > 100 µg/mL
- IC80 (µg/ml) with constrains [6]: 0.929 µg/mL
- IC80 (µg/ml) with constrains [7]: > 100 µg/mL
- IC80 (µg/ml) with constrains [8]: 0.035 µg/mL
- IC80 (µg/ml) with constrains (HIV Env, isolate CNE21): 0.007 µg/mL
- IC80 (µg/ml) with constrains [9]: 75.6 µg/mL
- IC80 (µg/ml) with constrains [10]: 5.33 µg/mL
- IC80 (µg/ml) with constrains [11]: 0.005 µg/mL
- IC80 (µg/ml) with constrains [12]: 0.012 µg/mL
- IC80 (µg/ml) with constrains (HIV Env, isolate 249MB10): 0.045 µg/mL
- IC80 (µg/ml) with constrains [13]: > 100 µg/mL
- IC80 (µg/ml) with constrains [14]: 0.121 µg/mL
- IC80 (µg/ml) with constrains (HIV Env, isolate 246FC1G): > 100 µg/mL

B3: PGDM1400 (antibody, V domains shown)
VH: QVHLTQSGPEVRKPGTSVKVSCKAPGNTLKTYDLHWVRSVPGQGLQWMGWISHEGDKKVIVERFKAKVTIDWDRSTNTAYLQLSGLTSGDTAVYYCAKGSKHRLRDYALYDDDGALNWAVDVDYLSNLEFWGQGTAVTVSS
VL: DFVLTQSPHSLSVTPGESASISCKSSHSLIHGDRNNYLAWYVQKPGRSPQLLIYLASSRASGVPDRFSGSGSDKDFTLKISRVETEDVGTYYCMQGRESPWTFGQGTKVDIK
- IC80 (µg/ml) with constrains [1]: > 100 µg/mL
- IC80 (µg/ml) with constrains [2]: 7.43 µg/mL
- IC80 (µg/ml) with constrains [3]: 0.024 µg/mL
- IC80 (µg/ml) with constrains (HIV Env, isolate CNE30): > 100 µg/mL
- IC80 (µg/ml) with constrains [4]: 2.19 µg/mL
- IC80 (µg/ml) with constrains [5]: > 100 µg/mL
- IC80 (µg/ml) with constrains [6]: > 100 µg/mL
- IC80 (µg/ml) with constrains [7]: > 100 µg/mL
- IC80 (µg/ml) with constrains [8]: 0.242 µg/mL
- IC80 (µg/ml) with constrains (HIV Env, isolate CNE21): 0.011 µg/mL
- IC80 (µg/ml) with constrains [9]: > 100 µg/mL
- IC80 (µg/ml) with constrains [10]: 62.8 µg/mL
- IC80 (µg/ml) with constrains [11]: 0.017 µg/mL
- IC80 (µg/ml) with constrains [12]: 0.135 µg/mL
- IC80 (µg/ml) with constrains (HIV Env, isolate 249MB10): 0.085 µg/mL
- IC80 (µg/ml) with constrains [13]: > 100 µg/mL
- IC80 (µg/ml) with constrains [14]: 0.39 µg/mL
- IC80 (µg/ml) with constrains (HIV Env, isolate 246FC1G): > 100 µg/mL

B4: ePGDM13 (antibody, V domains shown)
VH: QAQLVQSGPEVRKPGTSVKVSCKNPGNTLTTYDLHWVRQVPGQGLQWMGWISHEGDKKVIVERFKAKVTIDWDRSTNTAYLQLSGLTSEDTAVYYCAKGSKHRLRDYALYDEDGALNWAVDVDYLANLEFWGQGTAVTVSS
VL: DIVLTQSPLSLSVTPGESASISCKSSHSLQHGDRNNYLAWYVQKPGRSPQLLLDLASERASGVPDRFSGSGSEKDFTLKISRVETEDVGTYYCMQGRESPWTFGQGTKVDIK
- IC80 (µg/ml) with constrains [1]: > 100 µg/mL
- IC80 (µg/ml) with constrains [2]: 3.3 µg/mL
- IC80 (µg/ml) with constrains [3]: 0.016 µg/mL
- IC80 (µg/ml) with constrains (HIV Env, isolate CNE30): > 100 µg/mL
- IC80 (µg/ml) with constrains [4]: 0.776 µg/mL
- IC80 (µg/ml) with constrains [5]: > 100 µg/mL
- IC80 (µg/ml) with constrains [6]: 55.9 µg/mL
- IC80 (µg/ml) with constrains [7]: > 100 µg/mL
- IC80 (µg/ml) with constrains [8]: 0.058 µg/mL
- IC80 (µg/ml) with constrains (HIV Env, isolate CNE21): 0.006 µg/mL
- IC80 (µg/ml) with constrains [9]: > 100 µg/mL
- IC80 (µg/ml) with constrains [10]: 6.26 µg/mL
- IC80 (µg/ml) with constrains [11]: 0.008 µg/mL
- IC80 (µg/ml) with constrains [12]: 0.013 µg/mL
- IC80 (µg/ml) with constrains (HIV Env, isolate 249MB10): 0.13 µg/mL
- IC80 (µg/ml) with constrains [13]: > 100 µg/mL
- IC80 (µg/ml) with constrains [14]: 0.196 µg/mL
- IC80 (µg/ml) with constrains (HIV Env, isolate 246FC1G): > 100 µg/mL
